How the values were obtained:
CyaB = target: T1, CyaB (Aeromonas hydrophila, UniProt O69199); experiment: inorganic phosphate release, colorimetric; type: biochemical; settings: 0.5 mM substrate, 5 mM Mg2+ or Mn2+, pH 9.1, 50°C
T1 construct: full length from first Met, cloned in PVP16 as 8HIS-MBP fusion, tag removed by TEV digestion; produced in E. coli BL21DE3; nickel column
T1 sequence (O69199 1-191): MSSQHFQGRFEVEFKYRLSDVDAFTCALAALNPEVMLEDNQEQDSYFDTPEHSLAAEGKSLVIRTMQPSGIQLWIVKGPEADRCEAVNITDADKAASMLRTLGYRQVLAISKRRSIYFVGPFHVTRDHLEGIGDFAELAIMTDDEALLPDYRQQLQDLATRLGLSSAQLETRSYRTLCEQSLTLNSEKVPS

[1] = substrate: O=P(O)(O)OP(=O)(O)OP(=O)(O)O; experiment: inorganic phosphate release, colorimetric, Michaelis-Menten fit; type: biochemical, Escherichia coli; settings: 5 mM Mg2+, pH 8.5, 50°C
[2] = substrate: O=P(O)(O)OP(=O)(O)OP(=O)(O)O; experiment: inorganic phosphate release, colorimetric; type: biochemical, Escherichia coli; settings: 10 mM Mg2+, 50 mM CHES pH 9.1, 25°C

O=P(O)(O)OP(=O)(O)OP(=O)(O)O [PPPi]
inorganic phosphate release, colorimetric (CyaB): it indeed hydrolyzes substrates such as ATP, ThTP and PPPi but at a low rate

Cc1ncc(C[n+]2csc(CCOP(=O)(O)OP(=O)(O)OP(=O)(O)O)c2C)c(N)n1 [ThTP]
inorganic phosphate release, colorimetric (CyaB): it indeed hydrolyzes substrates such as ATP, ThTP and PPPi but at a low rate

B1: GST-ygiF (Escherichia coli K-12) (protein)
chain: MAQEIELKFIVNHSAVEALRDHLNTLGGEHHDPVQLLNIYYETPDNWLRGHDMGLRIRGENGRYEMTMKVAGRVTGGLHQRPEYNVALSEPTLDLAQLPTEVWPNGELPADLASRVQPLFSTDFYREKWLVAVDGSQIEIALDQGEVKAGEFAEPICELELELLSGDTRAVLKLANQLVSQTGLRQGSLSKAARGYHLAQGNPAREIKPTTILHVAAKADVEQGLEAALELALAQWQYHEELWVRGNDAAKEQVLAAISLVRHTLMLFGGIVPRKASTHLRDLLTQCEATIASAVSAVTAVYSTETAMAKLALTEWLVSKAWQPFLDAKAQGKISDSFKRFADIHLSRHAAELKSVFCQPLGDRYRDQLPRLTRDIDSILLLAGYYDPVVAQAWLENWQGLHHAIATGQRIEIEHFRNEANNQEPFWLHSGKR
notes: produced in E. coli DH5alpha, GSTrap purified
Km [1]: 270 ± 25 µM

B2: EcPPase (Escherichia coli K-12) (protein)
chain: SLLNVPAGKDLPEDIYVVIEIPANADPIKYEIDKESGALFVDRFMSTAMFYPCNYGYINHTLSLDGDPVDVLVPTPYPLQPGSVIRCRPVGVLKMTDEAGEDAKLVAVPHSKLSKEYDHIKDVNDLPELLKAQIAHFFEHYKDLEKGKWVKVEGWENAEAAKAEIVASFERAKNK
notes: commercial purified recombinant preparation (Sigma-Aldrich); 20 kDa per subunit
Km [2]: 910 ± 90 µM
kcat [2]: 16.7 s⁻¹

From article PMC3440374, “High Inorganic Triphosphatase Activities in Bacteria and Mammalian Cells: Identification of the Enzymes Involved” (PLoS ONE, 2012)
